Laboratory results reported in PMC9894219.
Like-named read-outs stand apart in the source and are kept apart here.

Assays:
[1] = biological target: Nurr1258 (Nurr1 DBD-hinge-LBD) (UniProt P43354 258-598); test: crystal structure
[2] = biological target: T1, Nurr1258 (in Nurr1258-RXRα98 heterodimer);RXRα98 (DBD-hinge-LBD) (human?;human?, UniProt P43354;P19793 258-598;98-462, |); test: BLI
[3] = biological target: T1, Nurr1258 (in Nurr1258-RXRα98 …); test: BLI; remark: listed apart in the source

T1 sequence (P43354 258-598, chain 1 of 2): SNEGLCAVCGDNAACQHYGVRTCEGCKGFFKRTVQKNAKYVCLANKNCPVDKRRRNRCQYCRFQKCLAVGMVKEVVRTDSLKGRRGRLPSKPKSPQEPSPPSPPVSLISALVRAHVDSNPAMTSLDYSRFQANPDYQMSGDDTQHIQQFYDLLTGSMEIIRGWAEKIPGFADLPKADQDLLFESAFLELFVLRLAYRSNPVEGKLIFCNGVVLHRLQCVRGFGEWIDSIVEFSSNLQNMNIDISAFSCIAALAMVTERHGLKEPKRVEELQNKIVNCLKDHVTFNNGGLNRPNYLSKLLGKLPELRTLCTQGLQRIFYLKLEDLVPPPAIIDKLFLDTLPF
T1 sequence (P19793 98-462, chain 2 of 2): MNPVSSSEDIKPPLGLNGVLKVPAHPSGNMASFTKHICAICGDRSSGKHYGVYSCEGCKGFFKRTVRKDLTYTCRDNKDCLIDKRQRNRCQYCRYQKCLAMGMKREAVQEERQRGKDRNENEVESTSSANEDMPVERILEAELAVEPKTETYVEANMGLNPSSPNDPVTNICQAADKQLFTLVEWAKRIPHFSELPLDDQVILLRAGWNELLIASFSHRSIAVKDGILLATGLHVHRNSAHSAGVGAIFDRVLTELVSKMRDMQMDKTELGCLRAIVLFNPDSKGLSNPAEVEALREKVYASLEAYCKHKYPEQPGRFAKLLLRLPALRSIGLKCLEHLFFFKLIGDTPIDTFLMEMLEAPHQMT
Chain of Nurr1258 (Nurr1 DBD-hinge-LBD) (P43354 258-598): as the sequence (P43354 258-598, chain 1 of 2) above

B1: NBRE (dsDNA)
DNA 1: CCGAAAAGGTCATGCG
DNA 2: CGCATGACCTTTTCGG
binding result [1]: binds

B2: IR5 biotinylated (dsDNA)
DNA 1: AAAGGTCAAACTGTGACCTAT
DNA 2: ATAGGTCACAGTTTGACCTTT
Kd [2]: 62.5 nM
Kd [3]: 864 nM
